# Measured values published in the supplement of paper PMC9112550, “Optimization of the antimicrobial peptide Bac7 by deep mutational scanning” (BMC Biology, 2022).
# Tested on: Escherichia coli TOP10
# Experiment: shrunken log2 fold change of peptide-encoding DNA abundance (4.5 h post-induction vs induction); higher = less antimicrobial activity (less host growth inhibition)
# Details: time post-induction: 4.5 h; library: site-saturation at positions 5, 18, 19, 20
# 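Note: peptides expressed intracellularly from a pBAD plasmid library in pooled LB shake-flask culture, induced with 0.3% L-arabinose, DNA abundance read by NGS, three biological replicates, DESeq2 with apeglm shrinkage.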
row,Sequence,shrunken log2 fold change
1,RRIRARPPRLPRPRPRPTRKPRP,0.574
2,RRIRPRPPRLPRPRPRPAKNPRP,0.235
3,RRIRPRPPRLPRPRPRPVTAPRP,0.385
4,RRIRMRPPRLPRPRPRPGAMPRP,0.609
5,RRIRVRPPRLPRPRPRPFWGPRP,-0.0605
6,RRIRTRPPRLPRPRPRPKNAPRP,0.0264
7,RRIRIRPPRLPRPRPRPFTIPRP,-0.246
8,RRIRSRPPRLPRPRPRPLDWPRP,0.262
9,RRIRYRPPRLPRPRPRPSDVPRP,-0.199
10,RRIRNRPPRLPRPRPRPNHMPRP,-0.16
11,RRIRVRPPRLPRPRPRPCYPPRP,-0.327
12,RRIRQRPPRLPRPRPRPPNQPRP,0.448
13,RRIRSRPPRLPRPRPRPFWLPRP,0.26
14,RRIRVRPPRLPRPRPRPFTYPRP,-0.105
15,RRIRFRPPRLPRPRPRPNCPPRP,0.0451
16,RRIRDRPPRLPRPRPRPMPDPRP,-0.00281
17,RRIRSRPPRLPRPRPRPWMDPRP,-0.0373
18,RRIRWRPPRLPRPRPRPIFGPRP,0.0623
19,RRIRIRPPRLPRPRPRPGMNPRP,-0.0956
20,RRIRKRPPRLPRPRPRPGCEPRP,1.31
21,RRIRDRPPRLPRPRPRPSAWPRP,0.123
22,RRIRMRPPRLPRPRPRPVTIPRP,-0.0206
23,RRIRNRPPRLPRPRPRPDWFPRP,-0.0803
24,RRIRERPPRLPRPRPRPWQHPRP,-0.00568
25,RRIRHRPPRLPRPRPRPNFAPRP,0.303

row,Sequence,shrunken log2 fold change
1,RRIRYRPPRLPRPRPRPVKNPRP,-0.381
2,RRIRMRPPRLPRPRPRPPCYPRP,-0.0907
3,RRIRSRPPRLPRPRPRPYRYPRP,-0.262
4,RRIRMRPPRLPRPRPRPYNMPRP,-0.348
5,RRIRIRPPRLPRPRPRPVYHPRP,-0.262
6,RRIRFRPPRLPRPRPRPMWRPRP,-0.0033
7,RRIRSRPPRLPRPRPRPQLMPRP,-0.1
8,RRIRCRPPRLPRPRPRPEPFPRP,0.0621
9,RRIRSRPPRLPRPRPRPWFIPRP,-0.311
10,RRIRERPPRLPRPRPRPCKLPRP,-0.187
11,RRIRRRPPRLPRPRPRPGGHPRP,0.499
12,RRIRYRPPRLPRPRPRPKGDPRP,-0.0902
13,RRIRIRPPRLPRPRPRPFSQPRP,-0.52
14,RRIRDRPPRLPRPRPRPCRRPRP,-0.155
15,RRIRIRPPRLPRPRPRPEELPRP,-0.0241
16,RRIRNRPPRLPRPRPRPQQSPRP,-0.0808
17,RRIRSRPPRLPRPRPRPWYNPRP,-0.502
18,RRIRSRPPRLPRPRPRPQDGPRP,-0.0336
19,RRIRVRPPRLPRPRPRPHRGPRP,-0.0736
20,RRIRSRPPRLPRPRPRPMAAPRP,1.8
21,RRIRWRPPRLPRPRPRPEFQPRP,0.118
22,RRIRCRPPRLPRPRPRPCGFPRP,-0.29
23,RRIRKRPPRLPRPRPRPNVLPRP,-0.112
24,RRIRERPPRLPRPRPRPQRMPRP,-0.411
25,RRIRSRPPRLPRPRPRPDVLPRP,-0.104

row,Sequence,shrunken log2 fold change
1,RRIRNRPPRLPRPRPRPVCYPRP,-0.21
2,RRIRNRPPRLPRPRPRPNPTPRP,-0.124
3,RRIRGRPPRLPRPRPRPGMWPRP,0.78
4,RRIRNRPPRLPRPRPRPCTMPRP,-0.199
5,RRIRLRPPRLPRPRPRPDKGPRP,-0.162
6,RRIRPRPPRLPRPRPRPHCYPRP,-0.2
7,RRIRHRPPRLPRPRPRPQWNPRP,-0.281
8,RRIRLRPPRLPRPRPRPQTEPRP,-0.0579
9,RRIRERPPRLPRPRPRPRSMPRP,-0.212
10,RRIRARPPRLPRPRPRPDPHPRP,0.373
11,RRIRCRPPRLPRPRPRPMAEPRP,0.331
12,RRIRCRPPRLPRPRPRPTGKPRP,0.355
13,RRIRMRPPRLPRPRPRPVDNPRP,0.113
14,RRIRCRPPRLPRPRPRPLPGPRP,0.262
15,RRIRNRPPRLPRPRPRPWGPPRP,-0.37
16,RRIRFRPPRLPRPRPRPHWEPRP,-0.0104
17,RRIRTRPPRLPRPRPRPDQSPRP,-0.0809
18,RRIRQRPPRLPRPRPRPACEPRP,-0.0795
19,RRIRNRPPRLPRPRPRPGYCPRP,-0.369
20,RRIRFRPPRLPRPRPRPKPEPRP,0.37
21,RRIRRRPPRLPRPRPRPATYPRP,-0.0435
22,RRIRWRPPRLPRPRPRPHPEPRP,0.275
23,RRIRVRPPRLPRPRPRPRMNPRP,-0.0411
24,RRIRMRPPRLPRPRPRPRYNPRP,-0.151
25,RRIRDRPPRLPRPRPRPHQGPRP,-0.00184

row,Sequence,shrunken log2 fold change
1,RRIRKRPPRLPRPRPRPPSQPRP,0.866
2,RRIRQRPPRLPRPRPRPTKKPRP,-0.0835
3,RRIRTRPPRLPRPRPRPSQAPRP,0.0983
4,RRIRKRPPRLPRPRPRPAHMPRP,0.686
5,RRIRPRPPRLPRPRPRPAMDPRP,0.0161
6,RRIRMRPPRLPRPRPRPIQWPRP,0.144
7,RRIRWRPPRLPRPRPRPNPGPRP,0.108
8,RRIRMRPPRLPRPRPRPEDQPRP,0.0267
9,RRIRKRPPRLPRPRPRPTSYPRP,-0.152
10,RRIRVRPPRLPRPRPRPCRHPRP,0.0429
11,RRIRMRPPRLPRPRPRPYRLPRP,-0.0977
12,RRIRHRPPRLPRPRPRPKATPRP,0.00379
13,RRIRVRPPRLPRPRPRPDWKPRP,-0.0682
14,RRIRSRPPRLPRPRPRPDWIPRP,-0.337
15,RRIRWRPPRLPRPRPRPWSMPRP,-0.269
16,RRIRSRPPRLPRPRPRPLPVPRP,0.0687
17,RRIRRRPPRLPRPRPRPNVYPRP,0.0361
18,RRIRGRPPRLPRPRPRPACGPRP,0.967
19,RRIRFRPPRLPRPRPRPHGDPRP,0.0644
20,RRIRIRPPRLPRPRPRPVYQPRP,-0.649
21,RRIRGRPPRLPRPRPRPIWNPRP,0.37
22,RRIRRRPPRLPRPRPRPYVLPRP,0.00941
23,RRIRRRPPRLPRPRPRPAFDPRP,0.522
24,RRIRARPPRLPRPRPRPWYSPRP,-0.43
25,RRIRTRPPRLPRPRPRPRGMPRP,0.24

row,Sequence,shrunken log2 fold change
1,RRIRTRPPRLPRPRPRPVSYPRP,-0.242
2,RRIRVRPPRLPRPRPRPDHPPRP,-0.386
3,RRIRNRPPRLPRPRPRPCNPPRP,-0.378
4,RRIRWRPPRLPRPRPRPQHHPRP,-0.475
5,RRIRERPPRLPRPRPRPHLTPRP,0.0373
6,RRIRDRPPRLPRPRPRPIGWPRP,-0.0185
7,RRIRTRPPRLPRPRPRPQISPRP,-0.024
8,RRIRQRPPRLPRPRPRPNKFPRP,-0.896
9,RRIRQRPPRLPRPRPRPPLEPRP,0.949
10,RRIRKRPPRLPRPRPRPKSFPRP,-0.125
11,RRIRKRPPRLPRPRPRPLLWPRP,0.443
12,RRIRNRPPRLPRPRPRPLRFPRP,0.426
13,RRIRSRPPRLPRPRPRPCRFPRP,-0.0924
14,RRIRCRPPRLPRPRPRPMYRPRP,-0.319
15,RRIRIRPPRLPRPRPRPVRDPRP,0.158
16,RRIRHRPPRLPRPRPRPAIRPRP,-0.000964
17,RRIRCRPPRLPRPRPRPWAFPRP,-0.0432
18,RRIRTRPPRLPRPRPRPHNGPRP,-0.0789
19,RRIRLRPPRLPRPRPRPYVCPRP,-0.0658
20,RRIRYRPPRLPRPRPRPECHPRP,0.0154
21,RRIRGRPPRLPRPRPRPCRWPRP,0.611
22,RRIRNRPPRLPRPRPRPQRDPRP,0.0103
23,RRIRGRPPRLPRPRPRPVRSPRP,0.902
24,RRIRNRPPRLPRPRPRPQQKPRP,0.0694
25,RRIRIRPPRLPRPRPRPQSWPRP,-0.0752

row,Sequence,shrunken log2 fold change
1,RRIRIRPPRLPRPRPRPASVPRP,-0.102
2,RRIRDRPPRLPRPRPRPQKAPRP,0.0864
3,RRIRDRPPRLPRPRPRPSYQPRP,-0.494
4,RRIRPRPPRLPRPRPRPHAQPRP,-0.119
5,RRIRIRPPRLPRPRPRPRHQPRP,-0.289
6,RRIRNRPPRLPRPRPRPGKRPRP,0.00355
7,RRIRMRPPRLPRPRPRPVNKPRP,-0.256
8,RRIRTRPPRLPRPRPRPCFVPRP,-0.454
9,RRIRRRPPRLPRPRPRPCCAPRP,0.372
10,RRIRTRPPRLPRPRPRPQKVPRP,-0.0169
11,RRIRVRPPRLPRPRPRPVKHPRP,-0.3
12,RRIRKRPPRLPRPRPRPQPPPRP,0.672
13,RRIRGRPPRLPRPRPRPEGEPRP,1.97
14,RRIRNRPPRLPRPRPRPQAKPRP,-0.00911
15,RRIRFRPPRLPRPRPRPADSPRP,-0.187
16,RRIRKRPPRLPRPRPRPPEWPRP,1.19
17,RRIRVRPPRLPRPRPRPCSYPRP,-0.0326
18,RRIRLRPPRLPRPRPRPNVEPRP,-0.211
19,RRIRIRPPRLPRPRPRPACMPRP,-0.0966
20,RRIRGRPPRLPRPRPRPFIEPRP,0.364
21,RRIRNRPPRLPRPRPRPWVIPRP,-0.552
22,RRIRVRPPRLPRPRPRPIPCPRP,-0.0881
23,RRIRDRPPRLPRPRPRPLHEPRP,-0.129
24,RRIRIRPPRLPRPRPRPFETPRP,-0.231
25,RRIRYRPPRLPRPRPRPRCCPRP,-0.233
